Data as given in patent publication US20160340418A1 (US Dept. of Health and Human Services, published 2016).

B1: matrilin-3-binding antibody fragment 13 (clone 13 scFv fused with human IgG1 Fc fragment) (Fc fusion)
scFv: LVQSGAEVKKPGASVKVSCKASGGTFSSYAISWVRQAPGQGLEWMGGIIPIFGTANYAQKFQGRVTITADKSTSTAYMELSSLRSEDTAVYYCARGQGYWFDPWGQGTLVTVSSGGGGSGGGASSGGGSDVQLTQSPSSLSASVGDRVTITCQASQDISNYLNWYQQKPGKAPKLLIYDASNLETGVPSRFSGSGSGTDFTFTISSLQPEDIATYYCQQYDNLPLTFGGGTKLEIK
notes: Tested as scFv-Fc (culture supernatant or protein A purified); not shown: human IgG1 Fc fragment encoded by the modified pSecTagB vector; Avi tag downstream of the Fc in the vector
B2: matrilin-3-binding antibody fragment 22 (clone 22 scFv fused with human IgG1 Fc fragment) (Fc fusion)
scFv: LQQSGPGLVKPSQTLSLTCAISGDSVSSNSAAWNWIRQSPSRGLEWLGRTYYGSKWYNDYAPSVKSRISINPDTSKNQFSLQLNSVTPEDTAVYYCTRGIWNAFDIWGQGTMVTVSSGGGGSGGGASGGGGSSSELTQDPAVSVALGQTVRITCQGDSLRSYYASWYQQKPGQAPLLVIYDRDNRPSGIPDRFSGSSSGNTASLTITGAQAEDEADYYCQSYDTSLSWVFGGGTQLTVL
notes: Tested as scFv-Fc; not shown: human IgG1 Fc fragment encoded by the modified pSecTagB vector; Avi tag downstream of the Fc in the vector

What was measured:
[1] = biological target: T1, recombinant human matrilin-3 protein (human, UniProt O15232 29-486); test: ELISA, coated recombinant matrilin-3, purified scFv-Fc titrated 230 nM to 0.014 nM, HRP anti-Fc
T1 construct: Bought from R&D Systems; It was biotinylated through an Avi tag for the library selection; also called human recombinant matrilin-3
T1 sequence: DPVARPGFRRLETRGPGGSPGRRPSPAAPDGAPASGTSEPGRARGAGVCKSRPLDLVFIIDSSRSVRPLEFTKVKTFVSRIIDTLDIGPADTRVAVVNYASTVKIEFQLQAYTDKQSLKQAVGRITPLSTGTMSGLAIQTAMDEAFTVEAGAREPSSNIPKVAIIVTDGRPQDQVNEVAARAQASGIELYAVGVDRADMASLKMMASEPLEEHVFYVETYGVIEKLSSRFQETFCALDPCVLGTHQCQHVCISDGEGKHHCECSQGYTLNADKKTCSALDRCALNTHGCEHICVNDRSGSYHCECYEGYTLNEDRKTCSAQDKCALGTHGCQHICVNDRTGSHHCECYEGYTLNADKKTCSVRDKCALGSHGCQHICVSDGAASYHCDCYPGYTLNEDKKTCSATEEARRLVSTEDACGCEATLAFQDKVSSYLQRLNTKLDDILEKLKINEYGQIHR

[2] = biological target: T2, recombinant mouse matrilin-3 protein (mouse, UniProt O35701 28-481, limits assumed); test: as above
T2 construct: also called mouse recombinant matrilin-3; His-Tagged recombinant mouse matrilin-3
T2 sequence (looked up): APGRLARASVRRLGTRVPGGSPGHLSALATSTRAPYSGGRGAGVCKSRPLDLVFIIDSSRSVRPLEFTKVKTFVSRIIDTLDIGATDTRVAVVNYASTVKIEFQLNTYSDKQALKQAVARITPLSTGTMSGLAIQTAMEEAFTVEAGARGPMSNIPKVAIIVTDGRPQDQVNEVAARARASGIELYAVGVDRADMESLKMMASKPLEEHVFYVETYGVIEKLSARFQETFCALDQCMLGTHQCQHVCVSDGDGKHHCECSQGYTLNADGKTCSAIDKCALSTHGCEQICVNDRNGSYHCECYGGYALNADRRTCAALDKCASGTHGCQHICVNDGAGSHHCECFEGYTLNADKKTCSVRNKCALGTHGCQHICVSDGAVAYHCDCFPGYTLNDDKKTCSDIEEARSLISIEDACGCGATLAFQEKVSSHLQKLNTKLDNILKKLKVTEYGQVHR

| EC50 [1] [nM] | EC50 [2] [nM] | Binder |
| --- | --- | --- |
| < 1 | < 1 | B1 |
| < 1 | < 1 | B2 |
